Results on five molecules are retold here after PMC4722173, “Identification of the Elusive Pyruvate Reductase of Chlamydomonas reinhardtii Chloroplasts” (Plant and Cell Physiology, 2015).

Data set [1] addresses T1, His-tagged Cr-LDH1 (Chlamydomonas reinhardtii, UniProt B0LUZ5).
T1 construct: residues 45-421, putative 44-residue chloroplast transit peptide removed, C-terminal His tag kept, codon-optimized synthetic gene, pET28b, E. coli KRX; 40 kDa, tetramer (about 200 kDa)
T1 sequence (B0LUZ5 45-421): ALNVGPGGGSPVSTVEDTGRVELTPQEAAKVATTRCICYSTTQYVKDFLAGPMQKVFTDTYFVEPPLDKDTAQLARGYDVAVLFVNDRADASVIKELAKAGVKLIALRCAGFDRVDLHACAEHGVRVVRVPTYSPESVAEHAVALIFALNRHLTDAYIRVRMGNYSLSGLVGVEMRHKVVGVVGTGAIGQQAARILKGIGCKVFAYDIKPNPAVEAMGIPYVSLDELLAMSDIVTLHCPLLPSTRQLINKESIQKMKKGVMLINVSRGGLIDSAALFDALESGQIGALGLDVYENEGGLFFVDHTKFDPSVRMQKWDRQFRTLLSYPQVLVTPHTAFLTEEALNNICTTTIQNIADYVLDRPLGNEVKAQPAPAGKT
In words: X-ray crystallography, […] Å. The format is binding. The settings on record: 300 µM NAD+ in protein solution before crystallization; active site of each monomer, near H378, R311, E340.

The target of data set [2] is PFL1 (pyruvate formate lyase), endogenous, in Chlamydomonas reinhardtii whole-cell extract (Chlamydomonas reinhardtii (endogenous in whole-cell extract)). The data set can be described thus: native gel or EMSA; 1D BN-PAGE of C. reinhardtii whole-cell extracts, immunoblot with Cr-LDH1 or PFL1 antibodies. A general note: A gel shift assay detects complexes by their altered migration in electrophoresis.

The target of data set [3] is T1, His-tagged Cr-LDH1. In words: spectrophotometric NADH oxidation at […] nm. The format is biochemical. To be noted: 300 µM NADH with pyruvate; pH 7.5; 25 °C; mere turnover.
The target of data set [4] is His-tagged recombinant Cr-LDH1 (NAD+-dependent D-lactate dehydrogenase encoded by Cre07.g324550), residues 45-421 (Chlamydomonas reinhardtii). The data set can be described thus: crystal structure; sitting drop, approximately 14.5 mg/ml protein with 300 µM NAD+, 20% PEG 3350, 200 mM potassium nitrate; 2.46 Å; tetramer as predicted by PISA.
Substrate in data set [5]: CC(=O)C(=O)O
The data set can be described thus: purified protein. The format is biochemical, Chlamydomonas reinhardtii. To be noted: 300 µM NADH, 25 mM sodium phosphate, 250 mM NaCl, pH 7.5, 25 °C, mean ± SD of two protein preparations.

Substrate in data set [6]: O=CC(=O)O
The data set can be described thus: purified protein. The settings on record: 300 µM NADH, 25 mM sodium phosphate, 250 mM NaCl, pH 7.5, 25 °C. The format is biochemical, Chlamydomonas reinhardtii.

Substrate in data set [7]: C[C@@H](O)C(=O)O
The data set can be described thus: purified protein. The settings on record: 300 µM NAD+, 25 mM sodium phosphate, 250 mM NaCl, pH 7.5, 25 °C.

On to `NC(=O)c1ccc[n+]([C@@H]2O[C@H](COP(=O)(O)OP(=O)(O)OC[C@H]3O[C@@H](n4cnc5c(N)ncnc54)[C@H](O)[C@@H]3O)[C@@H](O)[C@H]2O)c1` [NAD^+], for which the “X-ray crystallography, 2.46 Å” value in data set [1] is listed as “NAD^+ molecules added during crystallization were observed in the active site of each monomer”.

As a reminder, the stoichiometry N is the number of molecules, sites or subunits per partner or assembly. “PFL1 (pyruvate formate lyase), endogenous, in Chlamydomonas reinhardtii whole-cell extract (enzyme)” gave a stoichiometry N in data set [2] of 2.

Turning to `NC(=O)C1=CN([C@@H]2O[C@H](COP(=O)(O)OP(=O)(O)OC[C@H]3O[C@@H](n4cnc5c(N)ncnc54)[C@H](O)[C@@H]3O)[C@@H](O)[C@H]2O)C=CC1` [NADH], the “spectrophotometric NADH oxidation at 340 nm” value in data set [3] is “preference for the reduction of pyruvate to D-lactate and a specificity for NADH”.

With “His-tagged recombinant Cr-LDH1 (NAD+-dependent D-lactate dehydrogenase encoded by Cre07.g324550), residues 45-421 (enzyme)”, the stoichiometry N in data set [4] is 4.

B1: His-tagged Cr-LDH1 (Chlamydomonas reinhardtii) (protein)
chain: T1 sequence (B0LUZ5 45-421)
notes: residues 45-421, putative 44-residue chloroplast transit peptide removed, C-terminal His tag kept, codon-optimized synthetic gene, pET28b, E. coli KRX; 40 kDa, tetramer (about 200 kDa)
Usually Km stands for the substrate concentration at which the rate is half of its maximum. Usually kcat stands for the maximal rate divided by the concentration of active sites. The term kcat/Km denotes the turnover number divided by the Michaelis constant. Turning to B1, in data set [5], the Michaelis-Menten constant (Km) amounted to 1.46 ± 0.01 mM, the kcat worked out at 370 ± 2 s⁻¹ and the kcat/Km was 255000 ± 7000 M⁻¹ s⁻¹. Besides, in data set [6], the Km worked out at 62 mM, the catalytic constant (kcat) came to 60 s⁻¹ and the kcat/Km was 1000 M⁻¹ s⁻¹. In data set [7], the Michaelis constant (Km) stood at 70 mM, the kcat came to 10 s⁻¹ and the specificity constant (kcat/Km) was determined as 150 M⁻¹ s⁻¹.
